Entries after “also recorded” stand apart in the source; their conditions may differ.
Test system: septic shock patients
Test: Phase IIa clinical trial with nangibotide in septic shock patients (NCT03158948): safety, treatment emergent adverse events
Assay type: in vivo, human
Settings: for safety and tolerability: up to 3 mg/kg/h
Procedure: This was a European prospective, […], multinational study in 14 centers from 4 countries (France, Belgium, the Netherlands, and Spain). Patients were recruited from July 2017 to June 2018. The study was conducted in accordance with the principles set forth in the Declaration of Helsinki and subsequent amendments, the Guidelines of the International Conference on Harmonization on GCP, as well as the requirements of national drug and data protection laws and other applicable regulatory requirements.
This was a randomized, double-blind, two-stage, placebo-controlled study. As described in FIG. 7, the study was composed of 2 stages with a similar treatment regimen, in which 0.3, 1.0 or 3.0 mg/kg/h of nangibotide (corresponding to peptide LR12, having an amino acid sequence as set forth in SEQ ID NO: 9, also known as motrem) was tested versus placebo. All patients with a diagnosis of septic shock were considered for study participation. All potential study patients underwent standard care management procedures. Patients with evidence of septic shock according to the Sepsis-3 definition (Singer et al, JAMA 2016) were considered for inclusion (i.e., patients suffering from sepsis and having (i) persisting hypotension requiring vasopressors to maintain their mean arterial pressure ≥65 mm Hg and (ii) a serum lactate level >2 mmol/L (18 mg/dL) despite adequate volume resuscitation).
After screening for eligibility, patients were randomized to one of the treatment arms. Then, they received either a 5 mg/kg loading dose of nangibotide over 15 minutes followed by a continuous intravenous (i.v.) infusion of nangibotide or a matching placebo on top of standard of care. Treatment with study drug was initiated as early as possible, but no later than 24 hours after the onset of septic shock, defined by the start of vasopressor therapy. Patients were treated until 12 (±2) hours after the resolution of their septic shock (defined as vasopressor withdrawal) with a maximum treatment duration of 5 days (120 hours).
Stage 1 was performed to investigate ascending doses of nangibotide or placebo in a sequential design in cohorts of 4 patients (3:1 randomization). After completion of a cohort, safety and PK data were reviewed by an independent data safety monitoring board (DSMB) and the study could progress to the next cohort/stage. Stage 2 investigated 3 doses of nangibotide in a randomized, balanced, parallel-group design involving up to 3 doses of nangibotide and a placebo arm.
Adverse events (AEs) were coded using the MedDRA dictionary version 18.1. Treatment-emergent adverse events (TEAEs) were summarized and listed. Analysis was performed in 49 septic shock patients. The demographic and baseline characteristics were summarized in a descriptive fashion within each population: categorical variables were summarized by contingency tables (frequencies and percentages). sTREM-1 levels at day 1 were also described (mean, standard deviation, standard error, median, quartiles and range, minimum and maximum values). Mortality rates were reported by frequency and percentage. For continuous endpoints, i.e., the sequential organ failure assessment (SOFA), missing data were imputed using LOCF (Last Observation Carry-Forward). For time-to-event analyses, i.e., duration of invasive mechanical ventilation (IMV), duration of continuous renal replacement therapy (CRRT), survival, censored data techniques were utilized. In addition, a sensitivity analysis of time to event data (except survival) was performed using censoring at maximum limit for the corresponding observation period (i.e., either day 28 or day 90). […] The following comparisons were made: each nangibotide dose arm to placebo, all nangibotide doses combined versus placebo, and dose-response using an ordinal trend test. […]

nangibotide (LQEEDAGEYGCM; TLT-1 peptide)
All TEAEs leading to treatment withdrawal, % of all TEAEs (0.3 mg/kg/h): (0.0%) | All TEAEs leading to treatment withdrawal, number (0.3 mg/kg/h): 0 | All TEAEs related to study drug (by investigator), % of all TEAEs (0.3 mg/kg/h): (0.0%) | All TEAEs related to study drug (by investigator), number (0.3 mg/kg/h): 0 | All TEAEs with intensity severe, % of all TEAEs (0.3 mg/kg/h): (21.4%) | All TEAEs with intensity severe, number (0.3 mg/kg/h): 12 | All serious TEAEs (including death), % of all TEAEs (0.3 mg/kg/h): (8.9%) | All serious TEAEs (including death), number (0.3 mg/kg/h): 5 | All TEAEs leading to treatment withdrawal, % of all TEAEs (1.0 mg/kg/h): (0.0%) | All TEAEs leading to treatment withdrawal, number (1.0 mg/kg/h): 0 | All TEAEs related to study drug (by investigator), % of all TEAEs (1.0 mg/kg/h): (7.1%) | All TEAEs related to study drug (by investigator), number (1.0 mg/kg/h): 4 | All TEAEs with intensity severe, % of all TEAEs (1.0 mg/kg/h): (23.2%) | All TEAEs with intensity severe, number (1.0 mg/kg/h): 13 | All serious TEAEs (including death), % of all TEAEs (1.0 mg/kg/h): (5.4%) | All serious TEAEs (including death), number (1.0 mg/kg/h): 3 | All TEAEs leading to treatment withdrawal, % of all TEAEs (3.0 mg/kg/h): (0.0%) | All TEAEs leading to treatment withdrawal, number (3.0 mg/kg/h): 0 | All TEAEs related to study drug (by investigator), % of all TEAEs (3.0 mg/kg/h): (0.0%) | All TEAEs related to study drug (by investigator), number (3.0 mg/kg/h): 0 | All TEAEs with intensity severe, % of all TEAEs (3.0 mg/kg/h): (13.1%) | All TEAEs with intensity severe, number (3.0 mg/kg/h): 8 | All serious TEAEs (including death), % of all TEAEs (3.0 mg/kg/h): (8.2%) | All serious TEAEs (including death), number (3.0 mg/kg/h): 5 | adverse events related to nangibotide treatment at the highest dose (highest dose): no adverse events related to nangibotide treatment were observed | AEs related to infections and cardiac disorders, nangibotide groups vs placebo (human, in vivo): proportionally higher in the nangibotide groups | incidence of atrial fibrillation and thrombocytopenia, nangibotide groups vs placebo (human, in vivo): proportionally higher in the nangibotide groups | number of SAEs/AEs and number of patients with SAEs/AEs, nangibotide groups vs placebo group (human, in vivo): comparable | suspected unexpected serious adverse reactions (SUSARs), number (nangibotide-treated group, without obvious explanation): Two | adverse events leading to treatment withdrawal (septic shock patients, 0.3-3.0 mg/kg/h): No adverse events (AEs) led to treatment withdrawal | safety and tolerability (septic shock patients): safe and well-tolerated | safety and tolerability (septic shock patients, listed as nangibotide): safe and well tolerated; also recorded: well-tolerated at all doses tested
